This note sets out measurements from US20240360224A1 (ORIONIS BIOSCIENCES, published 2024).

Substitutions are numbered along the chain they refer to. In names and notes the source's numbering stands.

By Kd is commonly meant the equilibrium constant for the complex coming apart. A lower Kd goes with a tighter complex. One may read the koff as a measure of how fast the partners let go of each other. By kon is commonly meant the second-order rate constant of association.

B1: 3LEC_89 (wild type) (VHH)
VHH: QVQLQESGGGLVQPGGSLRLSCAASGRIFSVNAMGWYRQAPGKQRELVAAITNQGAPTYADSVKGRFTISRDNAGNTVYLQMNSLRPEDTAVYYCKAFTRGDDYWGQGTQVTVSS
notes: pHEN6C periplasmic expression with C-terminal his6 tag, no HA tag
B2: 3LEC_89_opt3 (E1D-Q5V-Q108L-G75K) (VHH)
VHH: B1 VHH with Q1D, Q5V, G75K, Q110L
notes: The entry already carries the named substitutions; pHEN6C, C-terminal his6 tag
B3: 3LEC_89_opt2 (E1D-Q5V-Q108L-A74S) (VHH)
VHH: B1 VHH with Q1D, Q5V, A74S, Q110L
notes: as for B2
B4: 3LEC_89_opt1 (E1D-Q5V-Q108L) (VHH)
VHH: B1 VHH with Q1D, Q5V, Q110L
notes: as for B2
B5: R1CHCL50 (wild type) (VHH)
VHH: QVQLVESGGGLVHPGGSLRLSCAASGSFSSINVMGWYRQAPGKERELVARITNLGLPNYADSVTGRFTISRDNAKNTVYLQMNSLKPEDTAVYYCYLVALKAEYWGQGTQVTVSS
notes: pHEN6C periplasmic expression with C-terminal his6 tag
B6: R1CHCL50_opt3 (E1D-A74S-K83R-Q108L-T64K) (VHH)
VHH: B5 VHH with Q1D, T64K, A74S, K86R, Q110L
notes: as for B2
B7: R1CHCL50_opt2 (E1D-A74S-K83R-Q108L-H13Q) (VHH)
VHH: B5 VHH with Q1D, H13Q, A74S, K86R, Q110L
notes: as for B2
B8: R1CHCL50_opt4 (E1D-A74S-K83R-Q108L-H13Q-T64K) (VHH)
VHH: B5 VHH with Q1D, H13Q, T64K, A74S, K86R, Q110L
notes: as for B2
B9: R1CHCL50_opt1 (E1D-A74S-K83R-Q108L) (VHH)
VHH: B5 VHH with Q1D, A74S, K86R, Q110L
notes: as for B2
B10: 3LEC 13 (VHH)
VHH: QVQLQESGGGLVQPGGSLRLSCAASGRFFRVNAMGWYRQAPGKQRELVAAITNGGQIVYADSVKGRFTISRDSAKNTVYLQMNSLKSEDTAVYYCNAKAAASYVSTVADYWGQGTQVTVSS
notes: Entry includes C-terminal AAA-HA-His6 (pMECS)
B11: 2LEC 95 (VHH)
VHH: QVQLQESGGGLVQAGGSLRLSCEASGRTFSTYAMAWFRQAPGKERDLVAAISWSGGSTEYHDSVKGRFTISRDNTKNTVYLQMNSLKAEDTAVYYCAAEVEGSGREGNFYGASWYPGQGTQVTVSS
notes: Entry includes C-terminal AAA-HA-His tag (pMECS); only five His are printed in the text
B12: 2LEC 62 (VHH)
VHH: QVQLQESGGGLVQPGGSLRLSCAAYGSIFSINAMGWYRQAPGKERELVAGITTQGRITYGNSVRGRFTISGDNAKNTVYLQMKSLKPEDTAVYYCSAWGVKTGPESGSGTLEGQGTQVTVSS
notes: as for B10
B13: 3LEC 62 (VHH)
VHH: QVQLQESGGGLVQPGGSLRLSCAASGRIGSINSMGWYRQAPGKQREMVAAITNGGATVYADSVKGRFTISRDNAGNTVDLHMNSLRPEDSAVYYCTIWAADYQQYWGQGTQVTVSS
notes: as for B10
B14: 1LEC 26 (VHH)
VHH: QVQLQESGGGLVQPGGSLRLSCAASGRFFRVNAMGWYRQAPGKQRELVAAITNGGQTAYADSVKGRFTISKESARNTVHLQMSSLKPEDTAVYYCTIWAADYQQYWGQGTQVTVSS
notes: as for B10
B15: 3LEC 23 (VHH)
VHH: B14 VHH with P14T, R27S, F28I, R30N, V31I, A33S, N53V, Q56R, T57L, V63A
notes: as for B10
B16: 2LEC 76 (VHH)
VHH: QVQLQESGGGLVQAGESLRLSCVVSGRTFSINAMGWYRQAPGKQRELVAAITNQGRLSYVDSVKGRFTISRDNAANTVYLQMNSLKPEDTAVYYCAAFQSSGIDWGQGTQVTVSS
notes: as for B10
B17: 2LEC 88 (VHH)
VHH: QVQLQESGGGLVQPGGSLRLSCTASGSFFSINAMGWYRQAPGNQRELVAAITNGGRIAYTDSVKGRFTISNDNAKNTVYLQMNSLKPEDTDVYYCNAKAIPIYGSTAEDYWGQGTQVTVSS
notes: as for B10
B18: 3LEC 4 (VHH)
VHH: QVQLQESGGGLVQPGGSLRLSCAASGSFFSINAMGWYRQAPGKQRELVAAITNQGRIAYADSVKGRFTISRDNAKNTVYLQMNSLKPEDTAVYYCGRPGWDYWGQGTQVTVSS
notes: as for B10
B19: 3LEC 27 (VHH)
VHH: QVQLQESGGGLVQAGGSLRLSCAASVNIGTLNSMAWYREAPGKQRELVAGITGGGQITYANSVRGRFTVSRDIAKSTAYLQMNTLKPEDTAVYYCAAYDRSATPYWGQGTQVTVSS
notes: as for B10
B20: 3LEC 6 (VHH)
VHH: B19 VHH with A23V, T30S, A35V, E39Q, A40S, G54S, P104A
notes: as for B10
B21: 1LEC 51 (VHH)
VHH: B19 VHH with G29D, E39Q, G54S, I73N, A78V, K86Q, A102S
notes: as for B10
B22: 2LEC 67 (VHH)
VHH: QVQLQESGGGLVQAGGSLRLSCAASGRTFPGYVMAWFRQSPGQEREFAAAINWRGGDTYYADSVKGRFTISRDNVKNTVFLQMNSLKPEDTAVYFCAARLTTEYDYAYWGQGTQVTVSS
notes: as for B10
B23: 3LEC 9 (VHH)
VHH: QVQLQESGGGLVQAGGSLRVSCAASGRTLSNYAVGWWRQAPGKQREFVAAINWSSGGISYSNSAKGRFALSRDNAKNTVYLQMDSLKPEDTAVYYCAAASSVLSGTVDYWGQGTQVTVSS
notes: as for B10
B24: 3LEC 82 (VHH)
VHH: B23 VHH with V20L, G35A, W37F, F47L, N52W, S54A, S61A, A69V, V107A
notes: as for B10
B25: 3LEC 61 (VHH)
VHH: B23 VHH with G35A, W37F, S63A, V102I
notes: as for B10
B26: 3LEC 94 (VHH)
VHH: QVQLQESGGGSVQAGGSLRLSCAASGRTFSSYAMAWFRQAPGMERELVAAISWSGGSTYYADSVKGRFTISRDNAENTVYLQMNSLKPEDTAVYYCAAEAEGSGREGNFYERSWYQGQGTQVTVSS
notes: as for B10
B27: 1LEC 27 (VHH)
VHH: QVQLQESGGGLVQAGESLRLSCAASGSSDSINAMGWYRQAPGKQRELVAAITSGGRSTYIDSAKGRATISRDNARNTAYLQMSSLKAEDTAVYYCTIWNRDRQQYWGQGTQVTVSS
notes: as for B10
B28: 3LEC 15 (VHH)
VHH: QVQLQESGGGLVQAGGSLRLSCAASGSVFSINAMGWYRQAPEKQRELVAAITTQGRTTYEDSVKGRFTISRDGAQNTVYLQMDSLKPEDTAVYYCKAWTAKDDYWGKGTQVTVSS
notes: as for B10
B29: 2LEC 61 (VHH)
VHH: QVQLQESGGGLVQPGGSLRLSCAASGSIVSINSMGWYRQAPGKQRELVAAITDQGRTTYADSVKGRFTISRDDAKNKNTVYLQMNSLKAEDTAVYACKAFGRFDDYWGQGTQVTVSS
notes: as for B10
B30: 3LEC 22 (VHH)
VHH: QVQLQESGGGRVQPGGSLRLSCAAIGSIFEINSIGWYRQAPGKQRELVAAITSGGITNYANSVQGRSTISRDNVNNTVYLQMNSLKPEDSAVYYCKGFTGWGKEDYWGQGTQVTVSS
notes: as for B10
B31: 2LEC 83 (VHH)
VHH: QVQLQESGGGLVQAGGSLRLSCAASGRTLSSYTIGWYRQAPGKQRELVAAITNQGRRTYADSVKGRFTISRDNAKNTVYLQMDSLKSEDTAVYYCKGFSPTDDFWGQGTQVTVSS
notes: as for B10
B32: 2LEC 89 (VHH)
VHH: QVQLQESGGGLVQAGGSLRLSCAASGSIFSINSMGWYRQAPGKQRELVAAITNGGRTTYADSVKGRFTISRDNAKNTVYLQMDSLKPEDTAVYYCKGFSLTDDYWGQGTQVTVSS
notes: as for B10
B33: 1LEC 61 (VHH)
VHH: QVQLQESGGGLVQPGGSLRLSCAASGGISSINSMGWYRQAPGNQRELVAAITNGGRTVYGDSVKGRFTISRDSAGNTVHLQMDSLRPEDTGVYYCKAFTRGDDYWGQGTQVTVSS
notes: as for B10

T2 sequence (Q6UXN8 whole entry, the tested form may be a part): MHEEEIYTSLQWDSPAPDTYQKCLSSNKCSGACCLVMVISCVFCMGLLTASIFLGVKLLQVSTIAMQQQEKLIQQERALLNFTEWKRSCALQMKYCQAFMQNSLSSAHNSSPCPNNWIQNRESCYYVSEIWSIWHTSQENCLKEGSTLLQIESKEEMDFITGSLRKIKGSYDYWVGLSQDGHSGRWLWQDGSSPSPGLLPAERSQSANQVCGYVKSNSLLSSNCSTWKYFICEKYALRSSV
T1 sequence (Q6UXN8 57-241 limits assumed): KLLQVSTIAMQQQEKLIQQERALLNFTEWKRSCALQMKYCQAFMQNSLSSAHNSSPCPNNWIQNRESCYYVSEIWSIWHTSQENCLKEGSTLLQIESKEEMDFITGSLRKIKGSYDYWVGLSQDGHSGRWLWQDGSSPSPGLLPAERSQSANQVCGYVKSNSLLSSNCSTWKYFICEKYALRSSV

One assay concerns the target T1, biotinylated human CLEC9A (human, UniProt Q6UXN8 57-241, limits assumed, biotinylated (site not stated)).
T1 construct: Captured on a streptavidin sensor for BLI
The experiment in a line: BLI (Octet), biotinylated human CLEC9A on streptavidin sensor, VHH at 50, 100 and 200 nM, global analysis. As to the method: Affinities of the AFN's for Clec9A were determined using the bio-layer interferometry technology on an Octet system (ForteBio).
(In BLI a coated tip is dipped into the sample, and binding shifts an interference pattern.)
On to B1, for which the equilibrium dissociation constant (Kd) stood at 1.74 nM, the koff came to 0.000725 s⁻¹ and the kon came to 416000 M⁻¹ s⁻¹.

Consider B2, for which the Kd amounted to 2.56 nM, the koff is 0.00112 s⁻¹ and the kon was found to be 438000 M⁻¹ s⁻¹. Taken in the same sequence, the figures for B3 were 2.41 nM, 0.000817 s⁻¹ and 338000 M⁻¹ s⁻¹.

B4 gave a Kd of 2.2 nM, a dissociation rate constant (koff) of 0.000861 s⁻¹ and a kon of 391000 M⁻¹ s⁻¹. Taken in the same sequence, the figures for B5 were 1.72 nM, 0.000705 s⁻¹ and 410000 M⁻¹ s⁻¹. For the molecule B6, the Kd came to 1.79 nM, the koff came out at 0.000998 s⁻¹ and the kon worked out at 559000 M⁻¹ s⁻¹. Taken in the same sequence, the figures for B7 were 1.15 nM, 0.000723 s⁻¹ and 630000 M⁻¹ s⁻¹.

In turn, B8 gave a Kd of 2.7 nM, an off-rate constant (koff) of 0.00118 s⁻¹ and a kon of 438000 M⁻¹ s⁻¹. For B9 the same measures were 1.29 nM, 0.000635 s⁻¹ and 492000 M⁻¹ s⁻¹.

A further assay addresses T2, human Clec9A (human, UniProt Q6UXN8 1-241).
T2 construct: Expressed on transfected CHO-K1, HEK293-T and HL116 cells, or native on human dendritic cells; also called hClec9A; C-type lectin domain family 9 member A
Description: flow cytometry on HEK293-T cells transfected with human Clec9A; His-tagged VHH at 2 µg/ml, anti-His FITC antibody; single concentration. As to the method: The binding characteristics of various VHHs (as described in Example 1) were tested by flow cytometry. HEK293-T cells were transfected with a human Clec9A expression plasmid and stained with the His-tagged VHHs at 2 μg/ml, followed by staining with an anti-His Fitc conjugated antibody. Binding was measured by detecting cellular fluorescence via flow cytometry.
(In general: In flow cytometry, cells or beads pass a laser one at a time.)
Take B10: the binding result was “binds”.

Turning to B11, the binding result is recorded as “binds”. For the molecule B12, the binding result is “binds”.

Take B13: the binding result is “binds”.

On to B14, for which the binding result is given as “binds”.

Regarding B15, the binding result is “binds”.

As for B16, the binding result is “binds”. Regarding B17, the binding result was “binds”. Still for that read-out and setting: the value for B18 was “binds”; that for B19 was “binds”.

For the molecule B20, the binding result is recorded as “binds”. On the same count and under the same terms, for B21 the value was “binds”.

Take B22: the binding result was “binds”.

With B23, the binding result is recorded as “binds”. On the same count and under the same terms, the value for B24 was “binds”. As to B25, the binding result is on record as “binds”.

On to B26, for which the binding result is reported as “binds”. Consider B27, for which the binding result is listed as “binds”. As to B28, the binding result is reported as “binds”.

For B29, the binding result is “binds”. With B30, the binding result was “binds”. For B31, the binding result is on record as “binds”. On the same count and under the same terms, the value for B32 was “binds”. Consider B33, for which the binding result is “binds”.
